Data from publication PMC9122904, “Insights into the client protein release mechanism of the ATP-independent chaperone Spy” (Nature Communications, 2022).
Changes are numbered by the printed parent chain. Numbers in names are those of the source.

How the values were obtained:
Test in all cases: BLI; Octet RED96; client biotinylated and loaded on streptavidin sensors; Spy or Spy variant in solution at 0.25, 0.5, 1, 1.5 and 2 μM; 40 mM HEPES, 150 mM NaCl, pH 7.5; Kd calculated as koff/kon
Details in all cases: both partners purified
Spy_(29-124) K54D R55D = molecular target: T1, Spy_(29-124) K54D R55D (UniProt P77754 52-147, K54D | R55D)
T1 construct: source: E. coli BL21 (DE3), purified (Ni-NTA, cation exchange, SEC); not shown: His6, N-terminal, cleaved; SUMO, N-terminal, cleaved
T1 sequence (looked up): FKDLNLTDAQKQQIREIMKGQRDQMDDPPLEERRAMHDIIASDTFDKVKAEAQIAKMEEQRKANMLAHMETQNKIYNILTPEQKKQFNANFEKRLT

Spy_(29-124) R89D = molecular target: T2, Spy_(29-124) R89D (UniProt P77754 52-147, R89D)
T2 construct: source: E. coli BL21 (DE3), purified (Ni-NTA, cation exchange, SEC); not shown: His6, N-terminal, cleaved; SUMO, N-terminal, cleaved
T2 sequence (looked up): T1 sequence (looked up) with D26K, D27R, R61D

Spy D26E = molecular target: T3, Spy D26E (UniProt P77754 24-161, D26E)
T3 construct: source: E. coli BL21 (DE3), purified (Ni-NTA, cation exchange, SEC); not shown: His6, N-terminal, cleaved; SUMO, N-terminal, cleaved
T3 sequence (looked up): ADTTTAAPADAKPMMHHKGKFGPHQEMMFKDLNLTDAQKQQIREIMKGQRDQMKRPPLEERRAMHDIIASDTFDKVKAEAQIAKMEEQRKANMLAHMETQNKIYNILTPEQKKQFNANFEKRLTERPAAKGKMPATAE

Spy D26A = molecular target: T4, Spy D26A (UniProt P77754 24-161, D26A)
T4 construct: source: E. coli BL21 (DE3), purified (Ni-NTA, cation exchange, SEC); not shown: His6, N-terminal, cleaved; SUMO, N-terminal, cleaved
T4 sequence (looked up): T3 sequence (looked up) with E26A

Spy D26K = molecular target: T5, Spy D26K (UniProt P77754 24-161, D26K)
T5 construct: source: E. coli BL21 (DE3), purified (Ni-NTA, cation exchange, SEC); not shown: His6, N-terminal, cleaved; SUMO, N-terminal, cleaved
T5 sequence (looked up): T3 sequence (looked up) with E26K

Spy D26R = molecular target: T6, Spy D26R (UniProt P77754 24-161, D26R)
T6 construct: source: E. coli BL21 (DE3), purified (Ni-NTA, cation exchange, SEC); not shown: His6, N-terminal, cleaved; SUMO, N-terminal, cleaved
T6 sequence (looked up): T3 sequence (looked up) with E26R

Spy D26K R43D = molecular target: T7, Spy D26K R43D (UniProt P77754 24-161, D26K | R43D)
T7 construct: source: E. coli BL21 (DE3), purified (Ni-NTA, cation exchange, SEC); not shown: His6, N-terminal, cleaved; SUMO, N-terminal, cleaved
T7 sequence (looked up): T3 sequence (looked up) with E26K, R43D
Outline: (§1)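 Association was recorded with an Octet RED96 as streptavidin sensors carrying client proteins, biotinylated with EZ-link NHS-biotin at a 1:1 molar ratio, sat in 40 mM HEPES, 150 mM NaCl, pH 7.5 with 0.25 to 2 μM of the analyte protein (0.25, 0.5, 1, 1.5 and 2 μM). Dissociation followed after transfer to analyte-free buffer. Both wavelength-shift phases were fitted in SigmaPlot 12.0 to obtain koff and the observed association rate, whose dependence on analyte concentration yielded kon, with Kd defined as koff divided by kon.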

Spy H65D = molecular target: T8, Spy H65D (UniProt P77754 24-161, H65D)
T8 construct: source: E. coli BL21 (DE3), purified (Ni-NTA, cation exchange, SEC); not shown: His6, N-terminal, cleaved; SUMO, N-terminal, cleaved
T8 sequence (looked up): T3 sequence (looked up) with E26D, H65D
Outline: as §1

Spy_(H96D) = molecular target: T9, Spy_(H96D) (UniProt P77754 24-161, H96D)
T9 construct: source: E. coli BL21 (DE3), purified (Ni-NTA, cation exchange, SEC); not shown: His6, N-terminal, cleaved; SUMO, N-terminal, cleaved
T9 sequence (looked up): T3 sequence (looked up) with E26D, H96D
Outline: as §1

- kon (Spy_(29-124) K54D R55D): 126000 M⁻¹ s⁻¹
- kon (Spy_(29-124) R89D): 48000 M⁻¹ s⁻¹
- koff (Spy D26E): 0.196 s⁻¹
- koff (Spy D26A): 0.0876 s⁻¹
- koff (Spy D26K): 0.0775 s⁻¹
- koff (Spy D26R): 0.0811 s⁻¹
- koff (Spy D26K R43D): 0.202 s⁻¹
- koff (Spy H65D): 0.427 s⁻¹
- koff (Spy_(H96D)): 0.42 s⁻¹
B1: Im7 H40W L53A I54A (natural protein)
chain: MELKNSISDYTEAEFVQLLKEIEKENVAATDDVLDVLLEWFVKITEHPDGTDAAYYPSDNRDDSPEGIVKEIKEWRAANGKPGFKQG
modifications: biotin (EZ-link NHS-biotin, 1:1 molar ratio of biotin to protein)
notes: Im7 (colicin E7 immunity protein) with H40W L53A I54A; Spy was made with an N-terminal His6-SUMO tag that was cleaved; also called Im7AAW; partially folded client; source: purified by a similar procedure to Spy
